Measured values published in article PMC10003956, “To the Understanding of Catalysis by D-Amino Acid Transaminases: A Case Study of the Enzyme from Aminobacterium colombiense” (Molecules, 2023).

Target: D-amino acid transaminase from Aminobacterium colombiense (AmicoTA) (Aminobacterium colombiense)
Test: SEC; gel filtration of AmicoTA in solution (Figure S7); conditions not told for this experiment

stoichiometry N: 2
Substance: D-amino acid transaminase from Aminobacterium colombiense (AmicoTA) (enzyme)
